Results on 1 molecule are retold here after patent publication US20110306057A1.

The target of this test is PP2A regulatory subunit B56γ (human (endogenous in human HEK TER cells)), Q13362. The experiment in a line: anti-FLAG co-IP from HEK TER cells, immunoblot, densitometry; +++ >90%, ++ 50-90%, + <50%. The following applies: remark: other sources report otherwise. In general terms: A western blot detects proteins with antibodies after separation by electrophoresis.
PP2A regulatory subunit B56γ (human (endogenous in human HEK TER cells)), Q13362, sequence (Q13362 whole entry): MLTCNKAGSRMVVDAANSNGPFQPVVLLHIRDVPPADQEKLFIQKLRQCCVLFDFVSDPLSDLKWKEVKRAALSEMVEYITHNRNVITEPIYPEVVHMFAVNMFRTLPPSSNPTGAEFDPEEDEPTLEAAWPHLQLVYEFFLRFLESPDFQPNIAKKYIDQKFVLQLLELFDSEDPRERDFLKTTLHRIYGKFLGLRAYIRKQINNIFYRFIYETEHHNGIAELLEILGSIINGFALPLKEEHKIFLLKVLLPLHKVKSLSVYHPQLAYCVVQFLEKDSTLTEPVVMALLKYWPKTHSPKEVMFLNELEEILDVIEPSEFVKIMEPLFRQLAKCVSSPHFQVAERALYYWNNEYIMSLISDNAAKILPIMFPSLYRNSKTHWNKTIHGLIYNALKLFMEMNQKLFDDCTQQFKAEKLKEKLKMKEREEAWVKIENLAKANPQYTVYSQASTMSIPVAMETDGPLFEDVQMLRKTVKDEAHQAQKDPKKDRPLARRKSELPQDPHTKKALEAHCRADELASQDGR

B1: wild type (WT) FLAG epitope-tagged version of PP2A Aβ, P30154 1-601 (protein, not shown: small tags and cut ends)
chain: MAGASELGTGPGAAGGDGDDSLYPIAVLIDELRNEDVQLRLNSIKKLSTIALALGVERTRSELLPFLTDTIYDEDEVLLALAEQLGNFTGLVGGPDFAHCLLPPLENLATVEETVVRDKAVESLRQISQEHTPVALEAYFVPLVKRLASGDWFTSRTSACGLFSVCYPRASNAVKAEIRQQFRSLCSDDTPMVRRAAASKLGEFAKVLELDSVKSEIVPLFTSLASDEQDSVRLLAVEACVSIAQLLSQDDLETLVMPTLRQAAEDKSWRVRYMVADRFSELQKAMGPKITLNDLIPAFQNLLKDCEAEVRAAAAHKVKELGENLPIEDRETIIMNQILPYIKELVSDTNQHVKSALASVIMGLSTILGKENTIEHLLPLFLAQLKDECPDVRLNIISNLDCVNEVIGIRQLSQSLLPAIVELAEDAKWRVRLAIIEYMPLLAGQLGVEFFDEKLNSLCMAWLVDHVYAIREAATNNLMKLVQKFGTEWAQNTIVPKVLVMANDPNYLHRMTTLFCINALSEACGQEITTKQMLPIVLKMAGDQVANVRFNVAKSLQKIGPILDTNALQGEVKPVLQKLGQDEDMDVKYFAQEAISVLALA
For B1, the binding level (percent, co-immunoprecipitation densitometry) is more than 90%.
